Data taken from article PMC11347734, “Ultrasensitive Quantification of MUC16 Antigen/Amine-Terminated Aptamer Interaction by Surface Plasmon Resonance: Kinetic and Thermodynamic Studies”.

Assays:
Conditions in all cases: protein: commercial
[1] = molecular target: T1, MUC16 antigen (CA125) (UniProt Q8WXI7 1-14451); test: SPR; 315 K (42 C), pH 7.2; SPR, pH 7.2, 25 C (also 37 and 42 C); 1X PBS with 1 mM MgCl2 given as flow buffer for aptamer immobilization; surface blocked with 0.1% BSA
[2] = molecular target: T1, MUC16 antigen (CA125); test: SPR; 310 K (37 C), pH 7.2; SPR, pH 7.2, 25 C (also 37 and 42 C); 1X PBS with 1 mM MgCl2 given as flow buffer for aptamer immobilization; surface blocked with 0.1% BSA
[3] = molecular target: T1, MUC16 antigen (CA125); test: SPR; 25 C, pH 7.2; kon 2.55e4 M-1 s-1, koff 1.01e-3 s-1; SPR, pH 7.2, 25 C (also 37 and 42 C); 1X PBS with 1 mM MgCl2 given as flow buffer for aptamer immobilization; surface blocked with 0.1% BSA

B1: anti-MUC16 aptamer (ssDNA)
DNA: CTCACTATAGGGAGACAAGAATAAACGCTCAA
modifications: 3'-C6 amine
Kd [1]: 1340 nM
Kd [2]: 101 nM
Kd [3]: 39 nM
